Legend:
[1] = target: T1, human PD-L1-Fc (R&D Systems, cat#156-B7) (human, UniProt Q9NZQ7 19-239); test: ELISA, plate coated with human PD-L1-Fc, detection with anti-human IgG F(ab')2-HRP
T1 construct: Bought reagent; both are treated here as the same molecule; also called PD-L1 ligand; not shown: Fc part of the bought fusion protein

PD-L1 expressed on cells = PD-L1 expressed on cells (UniProt Q9NZQ7 19-290, limits assumed); test: cell-based or functional assay
Sequence of PD-L1 expressed on cells (Q9NZQ7 19-290 limits assumed): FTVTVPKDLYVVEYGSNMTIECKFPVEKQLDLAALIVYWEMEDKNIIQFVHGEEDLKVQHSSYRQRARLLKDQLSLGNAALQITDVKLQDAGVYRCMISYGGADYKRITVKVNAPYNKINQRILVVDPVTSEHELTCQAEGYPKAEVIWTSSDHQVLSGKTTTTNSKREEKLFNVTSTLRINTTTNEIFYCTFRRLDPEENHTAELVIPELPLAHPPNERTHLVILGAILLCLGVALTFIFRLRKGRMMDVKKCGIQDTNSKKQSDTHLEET

T1 sequence (Q9NZQ7 19-239 limits assumed): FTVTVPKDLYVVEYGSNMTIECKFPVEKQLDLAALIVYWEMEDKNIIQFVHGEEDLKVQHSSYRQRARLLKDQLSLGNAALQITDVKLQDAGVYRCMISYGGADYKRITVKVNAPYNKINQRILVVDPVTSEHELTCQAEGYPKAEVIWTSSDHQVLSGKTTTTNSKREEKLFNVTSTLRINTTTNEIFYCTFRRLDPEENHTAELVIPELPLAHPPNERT

EC50 [1]: 0.47 nM
EC50, PD-1/NFAT Reporter Jurkat T cell assay with PD-L1 positive T cell activator CHO cells (PD-L1 expressed on cells): 1.92 nM
B1: parent PD-L1 antibody (as IgG1-EN homodimer) (antibody, V domains shown)
VH: QVQLVQSGAEVKKPGSSVKVSCKASGGTFSSYAISWVRQAPGQGLEWMGGIIPIFGTANYAQKFQGRVTITADKSTSTAYMELSSLRSEDTAVYYCARSPDYSPYYYYGMDVWGQGTTVTVSS
VL: QSVLTQPPSASGTPGQRVTISCSGSSSNIGSNTVNWYQQLPGTAPKLLIYGNSNRPSGVPDRFSGSKSGTSASLAISGLQSEDEADYYCQSYDSSLSGSVFGGGIKLTVL
notes: IgG1-EN homodimer; parent of the anti-PD-L1 arm of the bispecific antibodies; also called parental PD-L1 Ab; parental anti-PD-L1 antibody
